Test results as given in patent US20130274185A1, “Pharmaceutical for Pseudo-Exercise Therapy” (THE UNIVERSITY OF TOKYO, priority 2010, published 2013).
“Also recorded” adds a separate entry of the source.

Tests used:
C2C12 myocytes [1] = assay: Patch clamp test, whole-cell current in C2C12 myocytes; type: cell-based, mouse; settings: adiponectin 30 μg/ml 30 sec, holding potential -60 mV
Method: Whole-cell currents were amplified with a patch-clamp amplifier (CEZ-2400; Nihon Kohden) and were digitized with a PowerLab digitizer (AD Instruments). Ringer's solution was used for the extracellular solution. The electrode solution contained 140 mM KCl, 10 mM HEPES, 5 mM EGTA-2K, and 10 mM D-glucose (pH 7.4). The data were low-pass filtered at 2 kHz and were sampled at 20 kHz. Ligands dissolved in Ringer's solution were applied at least twice with a self-made pressure-ejection system and via a two-barreled glass capillary.

PGC-1α = PGC-1α acetylation in C2C12 myocytes; type: cell-based, mouse; settings: treatment for 2 hr
Method: (§1) The mouse C2C12 myoblasts were grown in 90% Dulbecco's modified high glucose Eagle's medium containing 10% (v/v) fetal bovine serum. When the cells reached 80% confluent, the myoblasts were induced to differentiate into myocytes by replacing the medium with a low serum differentiation medium (98% Dulbecco's modified high glucose Eagle's medium, 2.5% (v/v) horse serum). The medium was changed daily. The C2C12 cells were transfected by using Pofectamine 2000 (Invitrogen) and following the manufacturer's instructions.

soleus muscle = assay: Calcium imaging in skeletal muscle (soleus); type: cell-based, mice; settings: adiponectin 30 μg/ml
Method: From 8-10 weeks-old mice, soleus muscles were dissected. Preparations were treated with 5 μM fura-2/AM in the presence of 0.1% Chremophore EL (Sigma) for 15 min. Fluorescence images were acquired using an inverted fluorescence microscopy (IX71, Olympus) equipped with a cooled charge-coupled device (CCD) camera (iXon, Andor) and a dry objective lens (10×, NA=0.3, Olympus) through a filter set consisting of a 327-353 nm and 369-391 nm excitation filter, a 409 nm dichroic mirror, and a 515-560 nm fluorescent filter. Ligands were supplied using the superfusing Ringer's solution (150 mM NaCl, 4 mM KCl, 2.0 mM CaCl2, 1.0 mM MgCl2, 30 mM D-glucose, 5 mM HEPES (pH 7.4)).

AMPK = AMPK phosphorylation in C2C12 myocytes; type: cell-based, mouse; settings: C2C12 myocytes, adiponectin 30 μg/ml
Method: as §1

C2C12 myocytes [2] = assay: NAD+/NADH measurements in C2C12 myocytes; type: cell-based, mouse
Method: NAD^+ and NADH nucleotides were directly measured by the method described in the following document (Nature, 458, 1056-1060 (2009)). Whole skeletal muscles or two 10 cm dishes of C2C12 myocytes were homogenized in 200 μl of an acid extraction buffer to measure the NAD^+ concentration, or 200 μl of alkali extraction to obtain the NADH concentration. Next, homogenates were neutralized and the concentration of nucleotides was measured fluorimetrically after an enzymatic cycling reaction using 5 μl of a sample. Values for both nucleotides were detected within the linear range. NAD^+/NADH ratios were calculated by comparing the ratios obtained from each animal or from parallel cell dishes in each experiment.

C2C12 myocytes [3] = assay: Mitochondrial content assay in C2C12 myocytes; type: cell-based, mouse
Method: as §1
Mitochondrial content assays were carried out as described in the following document (Cell Metab. 4, 75-87 (2006)), with slight modifications. Quantification of the mitochondrial content was conducted by using mtDNA and MitoTracker Green probe (Molecular Probes) according to the method as described in the following document (Obes. Res. 13, 574-581 (2005)). MitoTracker Green probe preferentially accumulates in mitochondria regardless of the mitochondrial membrane potential and provides an accurate assessment of mitochondrial mass. Cells were washed with PBS and after addition of 100 nM MitoTracker Green FM (Molecular Probes), incubated at 37° C. for 30 min. Cells were harvested by using trypsin/EDTA and resuspended in PBS. Fluorescence intensity was detected with excitation and emission wavelengths of 490 and 516 nm, respectively, and the values thus measured were corrected for total protein (mg/ml).

HDAC5 = HDAC5 phosphorylation in C2C12 myocytes; type: cell-based, mouse; settings: adiponectin 30 μg/ml, 0-20 min
Method: as §1

[4] = C2C12 myocytes, 30 μg/ml adiponectin

B1: adiponectin (protein, UniProt Q60994 1-247, looked up)
chain: MLLLQALLFLLILPSHAEDDVTTTEELAPALVPPPKGTCAGWMAGIPGHPGHNGTPGRDGRDGTPGEKGEKGDAGLLGPKGETGDVGMTGAEGPRGFPGTPGRKGEPGEAAYVYRSAFSVGLETRVTVPNVPIRFTKIFYNQQNHYDGSTGKFYCNIPGLYYFSYHITVYMKDVKVSLFKKDKAVLFTYDQYQEKNVDQASGSVLLHLEVGDQVWLQVYGDGDHNGLYADNVNDSTFTGFLLYHDTN
modifications: full-length
notes: adipokine, internal ligand of adiponectin receptor 1; recombinant murine full-length adiponectin
C2C12 myocytes [1]
  whole-cell inward current response: Inward current responses to adiponectin were observed
PGC-1α
  PGC-1α acetylation: decreased PGC-1α acetylation
Soleus muscle; control mice
  intracellular calcium ion concentration in soleus muscle (fura-2): increased the intracellular calcium ion concentration
Soleus muscle; muscle-R1KO mice
  calcium responses of soleus muscle: almost completely disappeared
AMPK
  phosphorylation of AMPK α-subunits at Thr 172: increased the phosphorylation of the AMPK α-subunits at Thr 172
C2C12 myocytes [2]
  NAD+ and NADH contents: increased
  NAD+/NADH ratio: increased a NAD^+/NADH ratio; also recorded: increased the NAD^+/NADH ratio
C2C12 myocytes [3]; C2C12 myocytes expressing PGC-1α-R13 mutant
  mitochondrial biogenesis: failed to further induce mitochondrial biogenesis
C2C12 myocytes [3]; [4]
  amount of mitochondria as assessed by MitoTracker green: increased
  mitochondrial DNA content: increased a mitochondrial DNA content
HDAC5
  HDAC5 phosphorylation: increased HDAC5 phosphorylation
